Molecular target: USP14 (UniProt P54578)
Experiment: co-IP, immunoblot
Conditions: reference: ALKBH5 wild type; sites S64,S69

ALKBH5 (from UniProt Q6P6C2) ALKBH5 S64A/S69A
binding against the reference: weaker
